Results as given in patent publication US20120003149A1.
Residue numbers refer to the chain shown, from its start. Values belong to the binder of their own block, whether it stands above or below them.

Experiments:
[1] = target: full-length human GPR87 with an N-terminal FLAG tag, stably expressed on CHO cells (human); assay: flow cytometry, hGPR87 stable expression CHO cell line, antibody at 1 µg/mL (no primary antibody: 18.36)
[2] = target: full-length human GPR87 with an N-terminal FLAG tag, stably expressed on CHO cells (human); assay: flow cytometry, hGPR87 stable expression CHO cell line, antibody at 0.01 µg/mL (no primary antibody: 18.36)
[3] = target: human GPR87 (G protein-coupled receptor 87), endogenously expressed in Me180 cells (human); assay: flow cytometry, Me180 cells transfected with control siRNA, antibody at 0.1 µg/mL (no primary antibody: 10.71)
[4] = target: human GPR87 (G protein-coupled receptor 87), endogenously expressed in Me180 cells (human); assay: flow cytometry, Me180 cells transfected with control siRNA, antibody at 10 µg/mL (no primary antibody: 10.71)
[5] = target: human GPR87 (G protein-coupled receptor 87), endogenously expressed in Me180 cells (human); assay: flow cytometry, Me180 cells transfected with siRNA against GPR87 (expression suppressed to 5.9% at the RNA level), antibody at 1 µg/mL (no primary antibody: 10.16)
[6] = target: full-length human GPR87 with an N-terminal FLAG tag, stably expressed on CHO cells (human); assay: flow cytometry, hGPR87 stable expression CHO cell line, antibody at 10 µg/mL (no primary antibody: 18.36)
[7] = target: human GPR87 (G protein-coupled receptor 87), endogenously expressed in Me180 cells (human); assay: flow cytometry, Me180 cells transfected with siRNA against GPR87 (expression suppressed to 5.9% at the RNA level), antibody at 10 µg/mL (no primary antibody: 10.16)
[8] = target: full-length human GPR87 with an N-terminal FLAG tag, stably expressed on CHO cells (human); assay: flow cytometry, hGPR87 stable expression CHO cell line, antibody at 0.1 µg/mL (no primary antibody: 18.36)
[9] = target: human GPR87 (G protein-coupled receptor 87), endogenously expressed in Me180 cells (human); assay: flow cytometry, Me180 cells transfected with control siRNA, antibody at 1 µg/mL (no primary antibody: 10.71)
[10] = target: human GPR87 (G protein-coupled receptor 87), endogenously expressed in Me180 cells (human); assay: flow cytometry, Me180 cells transfected with siRNA against GPR87 (expression suppressed to 5.9% at the RNA level), antibody at 0.1 µg/mL (no primary antibody: 10.16)

Chain of full-length human GPR87 with an N-terminal FLAG tag, stably expressed on CHO cells (human) (chain, as listed by the source): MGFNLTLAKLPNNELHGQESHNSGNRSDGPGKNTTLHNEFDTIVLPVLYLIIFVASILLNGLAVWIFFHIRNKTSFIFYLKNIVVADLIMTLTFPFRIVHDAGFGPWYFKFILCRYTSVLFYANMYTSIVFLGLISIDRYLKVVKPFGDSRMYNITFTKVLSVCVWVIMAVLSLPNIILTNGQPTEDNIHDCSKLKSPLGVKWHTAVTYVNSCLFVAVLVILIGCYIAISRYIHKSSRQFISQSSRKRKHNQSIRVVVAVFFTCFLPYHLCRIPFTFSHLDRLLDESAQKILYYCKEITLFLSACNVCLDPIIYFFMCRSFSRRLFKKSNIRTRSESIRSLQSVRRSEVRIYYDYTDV
Chain of human GPR87 (G protein-coupled receptor 87), endogenously expressed in Me180 cells (human) (chain, as listed by the source): as above

geometric mean of the fluorescence intensity [1]: 578
geometric mean of the fluorescence intensity [2]: 28.9
geometric mean of the fluorescence intensity [3]: 12.9
geometric mean of the fluorescence intensity [4]: 63.5
geometric mean of the fluorescence intensity [5]: 12.9
geometric mean of the fluorescence intensity [6]: 1240
geometric mean of the fluorescence intensity [7]: 20.6
geometric mean of the fluorescence intensity [8]: 110
geometric mean of the fluorescence intensity [9]: 24.6
geometric mean of the fluorescence intensity [10]: 10.3
B1: C0804 antibody (antibody, V domains shown)
VH: QIQLVQSGPELKKPGETVKISCKVSGYTFTDYSMHWVKQAPGKGLKWMAWINTETGKPTYADDFKGRFAFSLEASASTAYLQINNLKNEDTATYFCASLDYWGQGTTLTVSS
VL: DVLMTQTPLSLPVSLGDQASISCRSSQNVVHSSGNTYLEWFLQKPGQSPKLLIYKVSTRFSGVPDRFSGSGSGTDFTLKISRVEAEDLGVYYCFQGSHVPYTFGGGTKLEIKR

geometric mean of the fluorescence intensity [1]: 496
geometric mean of the fluorescence intensity [2]: 26.9
geometric mean of the fluorescence intensity [3]: 13.3
geometric mean of the fluorescence intensity [4]: 60.5
geometric mean of the fluorescence intensity [5]: 13.6
geometric mean of the fluorescence intensity [6]: 1290
geometric mean of the fluorescence intensity [7]: 22.4
geometric mean of the fluorescence intensity [8]: 91.6
geometric mean of the fluorescence intensity [9]: 28.8
geometric mean of the fluorescence intensity [10]: 10.1
B2: C0815 antibody (antibody, V domains shown)
VH: B1 VH with K13N, A74T, N85T
VL: B1 VL with T58N
